Results from the nanobody polyreactivity screen of Harvey et al. (2022).

assay: yeast display, Sf9 membrane polyspecificity reagent, FACS + sequencing; frameworks hold sequencing errors
Outline: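 Genes from sorted yeast were amplified by colony PCR, read by MiSeq 2 × 250 sequencing and filtered on CDR length. These cells carried a synthetic nanobody library in Saccharomyces cerevisiae BJ5465 and were sorted by FACS into low and high (top ~1%) gates on anti-HA and streptavidin fluorescence. Polyreactivity is labelled according to the gate of origin.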

Sequence	polyreactivity (PSR sort gate)
QVQLVESGGGLVQAGGSLRLSCAASGSIFRRYAMGWYRKAPGKERELVAGISRGGGITYYADSVKGRFTISRDNAKNTVYLQMNSLKPEDTAVYYCAARIGATYWVDWTHRAYDYWGQGTQVTVSS	high polyreactivity
QVQLVESGGGLVQAGGSLRLSCAASGRTFRAYAMGWYRQAPGKERELVAAITGGGSTKYADSVKGRFTISRDNAKNTVYLQMNSLKPEETAVYYCAATGRSGVLSSYYYWGQGTQVTVSS	high polyreactivity
QVQLVESGGGLVQAGGSLRLSCAASGSIFTRYAMGWYRQAPGKERELVAAISYRGDRTYYADSVKGRFTISRDNAKNTVYLQMNSLKPEDTAVYYCAATVQYSPIYDYWGQGTQVTVSS	high polyreactivity
QVQLVESGGGLVQAGGSLRLSCAASGFTFHYYVMGWYRQAPGKERELVAAINAGGVSTYYADSVKGRFTISRDNAKNTVYLQMNSLKPEDTAVYYCNARVRVRLGRNWSSYYYWGQGTQVTVSS	high polyreactivity
QDQLVESGGGLVQAGGSLRLSCAASGYTFDYNAMGWYRQAPGKEREFVAAIDWSGGNTYYADSVKGRFTISRDNAKNTVYLQMNSLKPEDTAVYYCNTVTEAVTRRYDYWGQGTQVTVSS	low polyreactivity
QVQLVESGGGLVQAGGSLRLSCAASGSTFGPYTMGWYRQAPGKERELVATISSGGSTYYADSVKGRFTISRDNAKNTVYLQMNSLKPEDTAVYYCAARYWSIYDYWGQGTQVTVSS	low polyreactivity
QVQLVASGGGLVQAGGSLRLSCAASGRIFDAYAMGWYRQAPGKERELVAAIDFSAGSTYYADSVKGRFTISRDNAQNTVYLQMNSLKPEDTAVYYCATRLGVLYDCWGQGTQVTVSS	low polyreactivity
QVQLVESGGGLVQAGGSLRLSCAASGFTFGPYAMGWYRQAPGKERELVAGITWSGASTYYADSVKGRFTISRDNAKNSVYLQMNSLKPEDTAVYYCARYYRLGSRYDYWGQGTQVTVSS	low polyreactivity
QVQLVESGGGLVQAGGSLRFSCAASGRNFVVYAMGWYRQAPRKEREFVAAITWSGDSTTYYADSVKGRFTISRDNAMTTFYLQLKSLKPDDTAVYYCASEGDGANGGAYDYWGQGTQVNVSS	low polyreactivity
QVQLVESGGGLVLAGGSLRLSCAASGSTFTIYALGWYRQAPVKQRELVAAITSGGSTYADSVKRRFTISRDNAKNTVYLEMNSLKPEETAVDYCATVTFSHAQRTWYDYWGQGSQVTVSS	high polyreactivity
QVQLVESGGGLVQAGGSLRLSCAASGYTFPLYAMGWYRQAAGKERELVADINIGGASTYYADSVKGRFTISRHNAKNTVYLQMNSLKPEESAVYYCAKEYYDGYFPTFDYDYWGQGTQVTVSS	low polyreactivity
QVQLVESGGGLVQAGGSLRLSCAPSVRIFGTNAMGWYRQAPGTERELVADITSGGSTNYADSVKGRFTISRDNAKNTVYLQMISLKPEDTAVYYCAADVIGDLRWYRDEYWGQGTQVTVSS	low polyreactivity
QVHSVESGGGLVQAGGSLRLSCSASGIIFYSYAMGWYRQAPGKERELVAGITIVGSTIYADSVKGRFTISRDNPKTTVYLQMISLKAEATAVYYCNKADLHFIEMDYWGQATQVTVSS	low polyreactivity
QVQLVESGGGLDQAGGSLRLSCAASGSIFDANAMVWYRQAPGKERELVAAITSSGGITYYADSVKGRFTISRDNAKNTVYLHLNSLKPADTAVYYCAAEYGYIDYSYLYWYDYWGQGTQVTVSS	high polyreactivity
QVQLQESGGGLVQAGGTLRLSCAASGSFSADEDMGWYRQSQGKEREFVAGISVGGNTNYADSVKGRFTISRENAKKTVYLKINCLKPEDTAVYYCRVRLRTSYLLDYWGQGTQVTVSS	high polyreactivity
QVQLVESGGGLVQAGGSLRLSCAASGITFYTYAMGWYRQAPRKERELVAAISGSGGSTYYADSVKGRFTISRDNAKNTVYLQMNSLKPEDTAVYYCAARWPRGPFGNRHDYWGQGTQVTVSS	high polyreactivity
QVQLVESGGGLVQAGGSLRLSCAASGSTFSNYAMGWYRQAPGKERELVASISNGGSTNYADSVKGRFTISRDNAKNNVYLQMNSLKPEDTAVYYCNAESKAKYDYWGQGTQVTVSS	low polyreactivity
QVQLVESGGGLVQAGGSLRLSCAASGFTFSRYAMGWYRQAPGKERELVAAISRSGGRTSYADSVKGRFTISRDNSKNTVFLQMNSLKPEDTAVYYCAARTATGSSSSIGYGYWGQGTQVTVSS	high polyreactivity
QVQLVESGGGLVPAGGSLRLSCAASGRTFRYYGMGWYRQAPGTERELLAAISWRGGSTNYADSVKGRFTISRDNAKNTVYLQMNSLKREDTAVYYCAVGTVYLTYRGYEYWGQGTQVTVSS	high polyreactivity
QVQLVESGGGLLQAGGSLRLSCAASGSIFESYAMGWYRQAPGKERELVAAITSSGDSTYYADSVKGRFTISRDNAKNTVYLQMNSLKPEDTAVYYCAKRVPTYISTAEWGSRYDYWGQGTQVTVSS	low polyreactivity
QVQLVESGGGLVQAGGSLRLSCAASGFTFVPYAMGWYIQAPGKERELVAAISSRGDSTYYADSVKGRFTISRDNAKNTVYLQMNSLKPEDTAVYYCNARTTPHMDYWGQGTQVTVSS	low polyreactivity
QVQLVDSGGGLVQAGGSLRLTCAASGRTFYGNAMGWYRQAPGKERELVATINYSGGSTYYADSVKGRFTISRDNAKNTVYLQMNSLKPEDTAVYYCAADDPEEFDYWGQGTQVTVSS	low polyreactivity

Sequence	polyreactivity (PSR sort gate)
QVQIVESGGGLVQAGRSLRLSCAASGLIFRAYAMGWYRQAPGKDRELVAAITRSGGRTYYADSVKGRFTISRDNAKNTVYLQMNTLKPVDTAVYYSAAEYGNTYSSYTYDYWGQGTQVNVSS	high polyreactivity
QVQLVESGGRLVQAGGSLLLSSAASGRTFGIYAMGWSRQSPGKERELCAAITWSGDSTYYADSVKGRFTISRDNAKNTVYIQMNSLKPEDTAVYYCAADYVGLTSVRYDYWGQGTQVTVSS	low polyreactivity
QVQLVESGGGLVQAGGSLRLSCAASGTTFVSYSMGWYRQAPGKEREFVATISISGTSTYYADSVKGRFTISRDNAKNTVYLQMISLKPEDTAVYYCAARLRRRGATQFYRYDYWGQGTQVTVSS	high polyreactivity
QVQLVESGGGLVQAGGSLRLSCAASGFTFVYYAMVWYRQAPGKERELVAAISRSGGSTYYADSVKGRFTISRDNAKNTVYLQMNSLKPEDTAVYYCAADIVARYPYDYAMYYWGQGTQVTVSS	high polyreactivity
QVQLVESGGGLVQAGGSLRLSCAASGSTFSSYTMGWYRQAPGKERELVAAISRSGGRTYYADSVKGRFTISRDNAKNTVYLQMNSLKPEDTAVYYCNAGLGIEYDYWGQGTQVTVSS	low polyreactivity
EVQLVESGGGLVQAGGSLRLSCAASGFTFGVYARGWYRQAPGKERELVAAITWGDGSTYYADSVKGRFTISRDNAKNTVYLQMNSLKPEDTAVYYCNAVTRRHKYYYWGQGTQVTVSS	high polyreactivity
QVQLVESGGGLVQAGGSLRLSCAASGRIFWYYAMGWYRQAPGKERELVASITRGNNTYYADSVKGRFTISRDNAKNPVYLQMNSLIPEDTAVYYCNAYRVRYTVDSVFYGYDYWGQGTHVTVSS	high polyreactivity
QVQLVESGGGLVQAGGSLRLICAASGRTFGRNAMGWYRQAPGKERELVAAISYGGGSTYYADSVKGRFTISRDNAKNTVYLQMNSLKPEDTPGSAAAARYAYGMWGQGTQVTVSS	low polyreactivity
QDQLVESGGGLVQAGGRLRLSCAASGSIFLKYSMGWYRQAPGKVRELVAVISQSGGRTYYADSVKGRFTISRDNAKNTVYLQMNILKPEETAVYYCNVDISWLRRKFDYWGQGTQVTVSS	low polyreactivity
QVQLVESGGGLVQAGGSLRLSCAASGFILYFKAMGWYRQAHGKERELVAAITSDGGSTYYADSLKGRFTISRDNAKNTVYLQMNSLKPEDTAVYYCAADASTWYTEEYWGQGTQVTVSS	low polyreactivity
QVQLVESGGGLVQAGGSLRLSCAASGRIFSFYAMGWYRQAPGKERELVATISDGGATTYYADSVKGRFTISRDNAKNTVYLQMNSLKPEDTAVYYCAADKRGRPGLPDYDSWGQGTQVTVSS	low polyreactivity
QVQLVESGGGLVQAGVSLRLSCAASGRIFGYNDMGWYRQAPGKERELVAAINWTGGSTYYADSVKGRFTISRDNAKNTVYLQMNSLKPEDTAVYYCNADARTKWVQTHTDFITDYDYWGQGTQVTVSS	low polyreactivity
QVQLVESGGGLVQAGGSLRLSCAASGSTFAVNAMGWYRQAPGKERELVAVITGNGANTYYADSVKGRFTISRDNAKNTVYLQMNSLKPEDTAVYYCNARLFSQSHYYYWGQGTQVTVSS	high polyreactivity
QVQLVESGGGLVQAGGSLRLSCAACGSTFPYNAMGWYRQAPGKERELVAAISGNGDSTFYADSVKGRFTISRDNAKNTVYLQMNSLKPEDTAVYYCAAEQYYGYYFYGYWGQGTQVTVSS	high polyreactivity
QVQLVESGGGLVQAGGSLRLSCAASGGTFWIYAMGSYRQAPGKERELVAGISHGDSTYYADSVKGRFTISRDNAKNTVYLQMNSLKPEDTAVYYCARDYRNPPFAYEYWGQGTQVTVSS	low polyreactivity
QVQLVESGGGLVQAGGSLRLSCAASGFTFGSYAMGWYRQAPGKERELVAAITSRGGSTYYADSVKGRFTISRDNAKNTVYLQMNSLKPEDTAVYYCNAVLPVYRTNMDYWGQGTQVTVSS	high polyreactivity
QVQLVETGGGLVQAGGSLRLSCAASGRIFQWYAMGWYRQAPGKERELVAAINNGGSTNYADSVKGRFTISRDNAKNTVYLQMNSLKPEDTAVYYCAAELTFVAQGWFVTYDYWGQGTQVTVSS	high polyreactivity
QVQLVESGGGLVQAGGSLRLSCAASGSILSYNTMGWYRHAPGKEREFVACITYSGSRTYYADSVKGRFTISRDKAKNTDYLQMNSLKPEDTAVYYCAKRNYYLLYWGQGTQVTVSS	high polyreactivity
QVQLVESGGGLVQAGGSLRLSCAASGITFGRNTMGWSRQAPGKEREMVASITRGGNTNYADSVKGRFTISRDNAKNTVYLQLNSLKPEDTAVYYCAARSTYRVSHVDYWGQGTQVTVSS	low polyreactivity
QVQLVESGGGLVQAGGSLRLSCAASGSTFNYNAMGWYRQAPGKERELVAAISSGASTNYADSVKGRFTISRDNAKNTVYLQMNSLKPEDTAVYYCAARSRTPGWYSTISRKMYWGQGTQVTVSS	high polyreactivity
QVQLVESGGGLVQAGGSLRLSCAASGSIFVNNAMGWYRQAPGKERELVAAIRRGSSTNYADSVKGRFTISRDNAKNTVYLQMNSLKPEDTAVYYCAADHVDDEAQNYDYWGQGTQVTVSS	low polyreactivity
